Results from patent US20030219410A1 (TRANSGENE S A, published 2003).

Target: T1, recombinant PML (wild-type 69 kDa isoform PML, PML3B) (UniProt P29590 1-560)
T1 construct: Untagged protein used in the co-transfection and co-localisation experiments; also called Promyelocytic Leukemia Protein
T1 sequence: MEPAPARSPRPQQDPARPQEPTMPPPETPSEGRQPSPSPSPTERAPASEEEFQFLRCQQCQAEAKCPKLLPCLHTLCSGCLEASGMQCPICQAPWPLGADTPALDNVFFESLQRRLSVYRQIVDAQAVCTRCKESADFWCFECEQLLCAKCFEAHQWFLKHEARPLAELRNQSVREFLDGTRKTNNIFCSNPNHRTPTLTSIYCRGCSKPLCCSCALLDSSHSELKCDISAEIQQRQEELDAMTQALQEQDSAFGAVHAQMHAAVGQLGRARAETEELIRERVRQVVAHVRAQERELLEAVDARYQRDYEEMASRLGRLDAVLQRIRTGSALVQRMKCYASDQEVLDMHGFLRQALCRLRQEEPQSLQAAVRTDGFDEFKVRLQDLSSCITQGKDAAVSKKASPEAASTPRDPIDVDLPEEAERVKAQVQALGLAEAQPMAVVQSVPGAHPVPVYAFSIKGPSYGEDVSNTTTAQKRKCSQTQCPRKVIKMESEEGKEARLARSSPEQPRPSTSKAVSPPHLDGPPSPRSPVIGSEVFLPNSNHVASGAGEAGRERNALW
Test: co-localisation by immunostaining and EM in transiently co-transfected cells

B1: recombinant wt pIX protein (other)
chain: MSTNSFDGSIVSSYLTTRMPPWAGVRQNVMGSSIDGRPVLPANSTTLTYETVSGTPLETAASAAASAAAATARGIVTDFAFLSPLASSAASRSSARDDKLTALLAQLDSLTRELNVVSQQLLDLRQQVSALKASSPPNAV
notes: Untagged protein used in the co-transfection and co-localisation experiments
binding result: binds
